Measured values published in patent US20030152571A1 (GlaxoSmithKline, published 2003).

B1: murine monoclonal antibody D12 (antibody, V domains shown)
VH: EIQLQQSGPEVVKPGASVKVSCKASGYAFTSYNMYWVKQSHGKSLEWIGYIDPYNGDTFYNQKFKGKATLTVDKSSSTAYMHLNSLTSEDSAVFYCARQNYGSFAYWGQGTLVTVSA
VL: DIVLTQSPATLSVTPGDSVSLSCRASQSISNHLHWYQQRSHESPRLLIKYASQSISGIPSRFRGSGSGTDFTLNINILETEDFGMYFCQQSNSWPFTFGSGTNLEIKR
notes: also called mAb D12; murine D12
B2: humanized D12 antibody HZ-D12 (IgG1) (antibody, V domains shown)
VH: QVQLVQSGAEVKKPGASVKVSCKASGYAFTSYNMYWVRQAPGQGLEWIGYIDPYNGDTFYNQKFKGKATLTVDKSTSTAYMELSSLRSEDTAVYYCARQNYGSFAYWGQGTLVTVSS
VL: DIVLTQSPGTLSLSPGERATLSCRASQSISNHLHWYQQKPGQAPRLLIKYASQSISGIPSRFSGSGSGTDFTLTISRLEPEDFAVYYCQQSNSWPFTFGQGTKVEIK
notes: also called HuD12; D12HZHC 1-0 / D12HZLC 1-0
B3: humanized D12 antibody HZ-D12 (IgG4) (antibody, V domains shown)
VH: B2 VH
VL: B2 VL

How the values were obtained:
[1] = target: T1, human vitronectin receptor αvβ3 purified from human placenta (human, UniProt P06756 31-1048; P05106 27-788); experiment: BIAcore; αvβ3 in a hybrid bilayer membrane on the sensor, mAb at 100, 25, 6 nM in triplicate; αvβ3 immobilized in hybrid bilayer membrane on the sensor; mAb at 100, 25, 6 nM in triplicate
T1 construct: mature; Detergent-solubilised native heterodimer; also called αvβ3 receptor; human αvβ3 protein receptor
T1 sequence (P06756 31-1048, form in doubt, chain 1 of 2): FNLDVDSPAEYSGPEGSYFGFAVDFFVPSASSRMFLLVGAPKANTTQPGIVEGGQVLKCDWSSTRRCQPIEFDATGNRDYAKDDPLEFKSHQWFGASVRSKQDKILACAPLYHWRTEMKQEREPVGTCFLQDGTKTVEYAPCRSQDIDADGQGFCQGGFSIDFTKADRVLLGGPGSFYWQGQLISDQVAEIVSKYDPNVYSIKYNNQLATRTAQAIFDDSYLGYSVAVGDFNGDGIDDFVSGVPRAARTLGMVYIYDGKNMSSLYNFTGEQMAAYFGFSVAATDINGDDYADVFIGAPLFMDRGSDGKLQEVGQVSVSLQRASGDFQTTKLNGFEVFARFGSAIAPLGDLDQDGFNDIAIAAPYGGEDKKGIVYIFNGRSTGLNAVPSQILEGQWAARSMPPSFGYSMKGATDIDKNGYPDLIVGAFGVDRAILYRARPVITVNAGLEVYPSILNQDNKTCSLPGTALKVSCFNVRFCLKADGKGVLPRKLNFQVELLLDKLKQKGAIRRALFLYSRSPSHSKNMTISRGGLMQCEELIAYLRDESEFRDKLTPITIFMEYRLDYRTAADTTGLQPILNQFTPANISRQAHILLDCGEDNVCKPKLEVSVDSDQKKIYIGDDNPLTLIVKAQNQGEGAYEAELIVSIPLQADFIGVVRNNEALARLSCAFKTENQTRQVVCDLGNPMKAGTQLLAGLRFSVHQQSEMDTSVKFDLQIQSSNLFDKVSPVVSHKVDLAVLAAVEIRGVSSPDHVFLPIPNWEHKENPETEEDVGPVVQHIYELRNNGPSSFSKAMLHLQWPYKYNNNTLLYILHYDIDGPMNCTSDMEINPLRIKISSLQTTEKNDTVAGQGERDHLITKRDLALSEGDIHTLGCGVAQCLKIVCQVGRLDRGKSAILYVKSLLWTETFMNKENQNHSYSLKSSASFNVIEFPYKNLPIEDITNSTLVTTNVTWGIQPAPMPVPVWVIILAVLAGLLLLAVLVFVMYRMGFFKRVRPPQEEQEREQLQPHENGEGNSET
T1 sequence (P05106 27-788, form in doubt, chain 2 of 2): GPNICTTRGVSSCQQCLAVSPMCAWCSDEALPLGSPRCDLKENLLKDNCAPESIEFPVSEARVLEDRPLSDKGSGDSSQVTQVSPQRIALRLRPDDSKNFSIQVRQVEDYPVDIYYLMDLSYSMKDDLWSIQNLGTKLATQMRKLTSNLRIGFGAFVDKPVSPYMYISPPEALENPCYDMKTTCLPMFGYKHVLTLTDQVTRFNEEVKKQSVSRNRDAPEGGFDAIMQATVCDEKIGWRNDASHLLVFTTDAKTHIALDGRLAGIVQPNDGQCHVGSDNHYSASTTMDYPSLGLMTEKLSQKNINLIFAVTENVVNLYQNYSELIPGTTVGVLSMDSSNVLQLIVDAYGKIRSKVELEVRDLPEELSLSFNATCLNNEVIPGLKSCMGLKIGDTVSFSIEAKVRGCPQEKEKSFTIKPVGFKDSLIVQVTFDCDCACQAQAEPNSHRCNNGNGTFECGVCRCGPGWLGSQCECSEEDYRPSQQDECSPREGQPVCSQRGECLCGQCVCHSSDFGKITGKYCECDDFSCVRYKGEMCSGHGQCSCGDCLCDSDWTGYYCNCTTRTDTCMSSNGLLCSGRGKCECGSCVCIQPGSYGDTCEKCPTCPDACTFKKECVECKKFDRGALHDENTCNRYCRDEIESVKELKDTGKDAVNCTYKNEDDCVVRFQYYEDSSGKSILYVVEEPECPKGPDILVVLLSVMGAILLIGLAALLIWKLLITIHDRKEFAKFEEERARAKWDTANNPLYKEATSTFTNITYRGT
Experimental: (§1) The αᵥβ₃ was immobilized by inserting the αᵥβ₃ into a phospholipid vesicle and producing a hybrid bilayer membrane on a hydrophobic sensor surface. […] Samples of the mAbs were passed over this surface and the rates at which they bound and then dissociated from the surface were measured and analyzed using software provided with the instrument.

[2] = target: T1, human vitronectin receptor αvβ3 …; experiment: BIAcore; immobilized αvβ3, mAb in solution
Experimental: as §1

[3] = target: T2, human αvβ3 receptor on cells or in tissue (human, UniProt P06756 31-1048; P05106 27-788); experiment: method not stated; reference is the rabbit αvβ3 receptor
T2 construct: whole, on cells; also called native cell surface receptor
T2 sequence (P06756 31-1048, chain 1 of 2): as the sequence (P06756 31-1048, form in doubt, chain 1 of 2) above
T2 sequence (P05106 27-788, chain 2 of 2): as the sequence (P05106 27-788, form in doubt, chain 2 of 2) above

[4] = target: T1, human vitronectin receptor αvβ3 …; experiment: not stated ('depending on the assay employed')
[5] = target: rabbit αvβ3 receptor on rabbit smooth muscle cells (rabbit, UniProt A0A5F9DQF7 1-123); experiment: cell-based or functional assay
Sequence of rabbit αvβ3 receptor on rabbit smooth muscle cells (A0A5F9DQF7 entry or part of it): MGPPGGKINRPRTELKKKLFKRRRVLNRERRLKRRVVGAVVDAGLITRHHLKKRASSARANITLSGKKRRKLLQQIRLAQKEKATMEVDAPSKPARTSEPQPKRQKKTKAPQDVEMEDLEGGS

[6] = target: T1, human vitronectin receptor αvβ3 …; experiment: BIAcore, αvβ3 immobilized in a hybrid bilayer membrane on the sensor surface, mAb in solution
Experimental: as §1

[7] = target: T2, human αvβ3 receptor on cells or in …; experiment: cell-based or functional assay

Binder	Kd [1] [nM]	Kd [2] [nM]	fold higher affinity against human αvβ3 than against the rabbit receptor [3] [fold]	Kd [4] [nM]	IC50, rabbit SMC migration (% control) [5] [µg/mL]	koff [6] [s⁻¹]	kon [6] [M⁻¹ s⁻¹]	IC50 (read off the curve), adhesion of αvβ3-transfected HEK293 cells to vitronectin (O.D. 600nM) [7] [µg/mL]
B1	0.53	1.3	10	1 to 3	18	0.00041	770000	
B2		1			42			~0.1
B3		1.1						
